# Measurements taken from PMC3377380 (Molecular Membrane Biology, 2012).
# T1: GST-Obsc_(6316–6345) (Rattus norvegicus)
# T1 chain: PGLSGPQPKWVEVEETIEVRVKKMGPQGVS
# Columns and labels:
# GST-Obsc_(6316–6345) = biological target: T1, GST-Obsc_(6316–6345); experiment: SPR
# GST-Obsc_(6231–6260) = GST-Obsc_(6231–6260) (Rattus norvegicus); experiment: SPR
Binder,fold decrease in kon against wild type (GST-Obsc_(6231–6260)) [fold],other results
sAnk1-MBP I102A (domain or fragment) VKGSLCFVLKHIHQELDKELGESEGLSDDEETISTRVVRRRVFLKGDELQNIPGEQVTEEQFTDEQGNIVTKKAIRKVVRQVDSSGAIDTQQHEEVELRGSGLQPDLIEGRKGAQIVKRASLKRGKQ,–,fold reduction in kon against wild type (GST-Obsc_(6316–6345)): ~3 fold
"sAnk1-MBP (wild type, sAnk1 residues 29–155) (domain or fragment) VKGSLCFVLKHIHQELDKELGESEGLSDDEETISTRVVRRRVFLKGDELQNIPGEQVTEEQFTDEQGNIVTKKIIRKVVRQVDSSGAIDTQQHEEVELRGSGLQPDLIEGRKGAQIVKRASLKRGKQ",–,Kd (GST-Obsc_(6316–6345)): ~130 nM
sAnk1-MBP F71A (domain or fragment) VKGSLCFVLKHIHQELDKELGESEGLSDDEETISTRVVRRRVALKGDELQNIPGEQVTEEQFTDEQGNIVTKKIIRKVVRQVDSSGAIDTQQHEEVELRGSGLQPDLIEGRKGAQIVKRASLKRGKQ,~2,–
sAnk1-MBP I103A (domain or fragment) VKGSLCFVLKHIHQELDKELGESEGLSDDEETISTRVVRRRVFLKGDELQNIPGEQVTEEQFTDEQGNIVTKKIARKVVRQVDSSGAIDTQQHEEVELRGSGLQPDLIEGRKGAQIVKRASLKRGKQ,~2,–
